Experiment: soluble on expression in E. coli; label from the status in PepcDB or PDB records

Sequence	soluble on expression in E. coli
MFSVLLSVYYNESPYYFRQSIDSLFNQSLQLAEVVLVKDGELTPELENVITEYTAKYLQIRVVPLKQNQGLGKALNEGLKHCSYDLVARMDTDDIAKPNRFEKQIRVFQEHPELDVVGAWIDEFEETTSNIISTRKLPEVHDDICQFAKKRNPENHPVIMFRKQAVLAAGGYQHFPLFEDYYLWIRMLQNGAKFYNIQESLLYFRFSSAMFKRRGGLKYVTTELRFQNLLRNLEFITFSEYLYNVFIRVITRMMPNSLRAILYKKALRK	not soluble
NLHGMEQIEFQVSAHRDLPLRPLNKVASGGELSRISLAIQVITSKAGTVPTLIFDEVDTGIGGRIAAIVGKLLQQLGKTRQVMSITHLPQVAARGDHHWRVSKTSETED	not soluble
MAHHHHHHMIYLIDNEDMIYIEFYRKKDCTFVYKFFNDTLPTGSTLSTSDVSAEYANIKYEINNNSCTVYSCDYSCLLKHKDYITIINNVLDKNLSDEILENYKNEKWLMYTKNDEEKLNLVIESNTLLRIKGKLRHEIIFGIPKKKKIQMQDKLMDRKNSYLVIFRFIREDNIKNFVTQKIKNKIPQNERQEKDCVPINVNEYTSEKLEKMYVLDVYNQIALHFGHTRAYEQEENVVGNRKFDSQDIFVPWYFQQQYKTEGYDDDAEGEGEEEPEKENEKEKEESHKFKPVKKGNMFKILKMKFFFFFYLLHNFRNIYIYNL	soluble
VAKMRFIDIGANLLDEMYTGQYNDKPYHPPDLSAVLERAWAAGLEKLMITAGSLKEARAALELAKTDERLYCTVGCHPTRCKEFEDHPGGPEAYLQELLEVLKEGQALGKVVAVGECGLVATDYERLHFCDADTQKKYFEAQFRLAKESGLPMFLHLRAAADDFLDITGRHLGDFPRGGVVHSFDGTAEEAARVLAVPQLAIGINGCSLKTDDNLAVVGGLPLERIMLETDCPWCEIRPTHAGRKHVSAEALAGVTGAKDRKKFMPGCQVKSRNEPANIRQVLEVVAGVKGRTDLEAVADVIFGNTERMFFPTA	not soluble
MGSDKIHHHHHHMIPSQHFQSTPTVQFDLLTYMIGSYHYNWHPQIELLWLLQGTVEVNVDGTRHQLHANDLILINANRGHATFALTPECIALRLHILPDFYTNQGIDLSSGAFLLNSVTTPQHRDYQTIRQILAQLYLGLHQQDWPIFDLNALYFQLTNLLHHDFFDTGITMTYPQPKTQSSLNRVIDYINQAYDRPITLNEAAKISHYSPAYLSRIFKAELGLNFYEYLTRCRLQHAIYDLENPTTRVADLALANGFQEVKSFNLMFKKHFGQTPSSYRQHLSHGQRPEYDQFKQPLTPTQTTIVQKQLNHWAQLTSTDQLSACESCMYKLHFQEYQALKQKIAQLKTLLNQ	not soluble
MKANRVNIKQAITEGETSLGIEFGSTRIKAVLIDSSFETIASGSYEWENLLEDGFWTYNLVDIITGLRTAYSEMKNEVERNYGITIRKIGSIGISAMMHGYMAFDKTGELLVPFRTWRNSTTGAAAKELTDQFQFNIPERWSIAHLYQAILNEEKHLPRIDYITTLAGYIHWLLTGNKAIGIGDASGMFPIDESTQNYNESMVKQFDELISNKGYPWKLKDILPKVYISGEQAGELTEIGAKILDQSKNLQPGIPICPPEGDAGTGMVATNSVRKRTGNISVGTSVFAMIVLEKELSKVYPEIDLVTTPNGSPVGMVHANNCSSDINAWLGLFREFFEAMGQKIETNKLFEVMLNKALEADSDGGGLLSYGYFSGENITGLEKGRPLFVRSPESRFNLANFMRTHLFTAFAALKIGMDILTKEEKIEIDSILAHGGLFKTPLVGQKIVAAAMNTPVSVMETAGEGGAWGMAILASYMMNKGQEESLEDFLDKKVFEEDAGQEIYPDQLDVEGFEAFIERYKKGLMIEQAAVDHLILEHHHHHH	soluble
MELVKTIQIGDDIYPPIPDLFGIQENQEFNLYKSTDGTLVLSPSDSKLSADHQSISSDEQMTTAVEQARLDEIATSVLSRHLDAFKELTE	not soluble
MGSDKIHHHHHHMPRKTATATKLFVLDTNVLMHDPTSLFRFEEHDVYVPIATLEELDQHKKGMTEVSRNARQASRFLDEIVRKLDSIDEGVPLAPHSHNAATGRLFLQTQAISGDIPVNLPTSKVDNQILGVVLFLSRHHTKRQVILVSKDINMRIKARALGLPAEDYFNDKVLEDTDLLYPGLRELPADFWDTHGKGMESWQANGHTYYRVKGPLVASLLPNEFVFQEGASPLYAKVLKVEGKHAEMVTIRDFGHHKNNVWGITARNREQNFALNVLMDPEIDFVSLLGQAGTGKTLLTLAAGLAQVLDKKIYSEIIMTRVTVPVGEDIGFLPGTEEEKMTPWMGALEDNLDVLNKSDDEGGDWGRAATQDLIRSRIKVKSLNFMRGRTFLNKFLIIDEAQNLTPKQMKTLITRAGPGTKVVCLGNIAQIDTPYLTEGSSGLTYVVDHFKGWPHNGHVTLQRGERSRLADYAAEVL	not soluble
LTEKQKRFADEYIKCGNATEAARLAGYSSKTANRIATENLSKPVIKGYIDKVLSELEEKRVMGYTEAMQLFTEIARGEMEEEVIVSNGDGFSVVTKSADINQRVSALKEIVKRHVAGGRDKLQEELIQAQIDKLRADT	not soluble
MPGIDKLPIEETLEDSPQTRSLLGVFEEDATAISNYMNQLYQAMHRIYDAQNELSAATHLTSKLLKEYEKQRFPLGGDDEVMSSTLQQFSKVIDELSSCHAVLSTQLADAMMFPITQFKERDLKEILTLKEVFQIASNDHDAAINRYSRLSKKRENDKVKYEVTEDVYTSRKKQHQTMMHYFCALNTLQYKKKIALLEPLLGYMQAQISFFKMGSENLNEQLEEFLANIGTSVQNVRREMDSDIETMQQTIEDLEVASDPLYVPDPDPTKFPVNRNLTRKAGYLNARNKTGLVSSTWDRQFYFTQGGNLMSQARGDVAGGLAMDIDNCSVMAVDCEDRRYCFQITSFDGKKSSILQAESKKDHEEWICTINNISKQIYLSENPEETAARVNQSALEAVTPSPSFQQRHESLRPAAGQSRPPTARTSSSGSLGSESTNLAALSLDSLVAPDTPIQFDIISPVCEDQPGQAKAFGQGGRRTNPFGESGGSTKSETEDSILHQLFIVRFLGSMEVKSDDHPDVVYETMRQILAARAIHNIFRMTESHLLVTCDCLKLIDPQTQVTRLTFPLPCVVLYATHQENKRLFGFVLRTSSGRSESNLSSVCYIFESNNEGEKICDSVGLAKQIALHAELDRRASEKQ	not soluble
MSLNEPLPDRQTELPAVKKENHGEYLQPRDLSKIPNTAFGDQVKRGYSLFVNSQQMRGKYVGNEQNCVNCHMEAGRKANAAPLWAAYMAYPAYRKKNDRVNSYADRIQGCFEYSMNGKAPAYDSPEIVALSAYAYWLAMGGLLDEGHHHHHH	soluble
MLGVCYYPEHWPKERWKEDARRMREAGLSHVRIGEFAWALLEPEPGRLEWGWLDEAIATLAAEGLKVVLGTPTATPPKWLVDRYPEILPVDREGRRRRFGGRRHYCFSSPVYREEARRIVTLLAERYGGLEAVAGFQTDNEYGCHDTVRCYCPRCQEAFRGWLEARYGTIEALNEAWGTAFWSQRYRSFAEVELPHLTVAEPNPSHLLDYYRFASDQVRAFNRLQVEILRAHAPGKFVTHNFMGFFTDLDAFALAQDLDFASWDSYPLGFTDLMPLPPEEKLRYARTGHPDVAAFHHDLYRGVGRGRFWVMEQQPGPVNWAPHNPSPAPGMVRLWTWEALAHGAEVVSYFRWRQAPFAQEQMHAGLHRPDSAPDQGFFEAKRVAEELAALALPPVAQAPVALVFDYEAAWIYEVQPQGAEWSYLGLVYLFYSALRRLGLDVDVVPPGASLRGYAFAVVPSLPIVREEALEAFREAEGPVLFGPRSGSKTETFQIPKELPPGPLQALLPLKVVRVESLPPGLLEVAEGALGRFPLGLWREWVEAPLKPLLTFQDGKGALYREGRYLYLAAWPSPELAGRLLSALAAEAGLKVLSLPEGLRLRRRGTWVFAFNYGPEAVEAPASEGARFLLGSRRVGPYDLAVWEEA	soluble
MCSKQSANQQISYRQTAEATLDKGMDNQPEAPYWFPKQLLKWQLSKDKAAKYNTASVPLAKRIDKWQLPTVNKTQDPKMKVVALSIMNSSTSGNAPRGINTFDANVFSNWQYIDQLVYWGGSAGEGLIVPPTADVIDSAHKNGVPVLGTVFFPQVVSGGKLKWLNDFLKQDADGHFPMADKLVAVAKAYGFDGWFINQETDPEVKSFDSASTGKTATSSTSNGLSKKHAQLMQQLIKEYKQKAGSKLDLMWYDSMTKDGKMDWQNALTKENQSYLVDANMKPVADSMFLNFWWTKKRLASQELLKKSHERAEKLGISPYNLFAGIDVQADGTATPVRWNLFANKQHVPYTSLGLYAPDWTHASSDTVDEFQAKEGALWVNLEHHHHHH	soluble
MRKFMMSVVMLAALTSCATQNMHGNYAAVSIEANKTMADVTVAQLVALYPPAHTRLDFQQTITDPYGAALLSALRKKGYSVLEYNPQPQAVPAKSAATAALVTANPTSGLPLSYVVDSPESMNLYRITVQIGVQSISRAFVVATNGNLYPAGAWVRKELEHHHHHH	not soluble
MSLAPRFTVTYFVRAADEAEAKARALDIALEQTVEIPRNVVPKGYVEDEILGRLESLLQDPEGRPGFLAAISYSEDDIGGDFLQFLNIVFGNSSIKPGIKVEDIGLSPGLLDLCKGPRHGIVGLRARAGIGEKPLLMSAIKPAGLSTTELARLAYDFALGGMHFVKDDHGLVDQKTAPFEERLKACIEAVGEANAKSGGRTSFVPNITGPATAIIERAKQAQEYGAGGVMIAPALAGYDIVRTLAADPDFSLPIVSHPAFSGANVVSPDCGFTHRAFFGTLHRLMGADAVVYPNFGGRFGFTREECQSIAKTCSVDMGGPKAIVAAPGGGMTFARIPEMREAYGNDIMYLVGGALLSEPDLVSACKRLVAATEEGHHHHHH	soluble
SFQRALPRQPVPSAQETVRKYLESVRPVLGDDAFDRATALANDFLRLHAPRLQLYLQLKSWCTSNYVSDWWEEFVYLRSRGSLINSTYYMMDFLYVTPTPLQAARAGNAVHTLLLYRHLLNRQEISPTLLMGMRPLCSAQYERMFNTTRIPGVEKDHLRHLQDSRHVAVFHRGRFFRVGTHSPNGLLSPRALEQQFQDILDDPSPACPLEEHLAALTAAPRSMWAQVRESVKTHAATALEAVEGAAFFVSLDSEPAGLTREDPAASLDAYAHALLAGRGHDRWFDKSFTLIVFSNGKLGLSVEHSWADCPVSGHLWEFTLATECFQLGYATDGHCKGHPDPTLPQPQRLQWDLPEQIQPSISLALRGAKTLSGNIDCHVFPFSHFGKSFIKCCHVSSDSFIQLVLQLAHFRDRGQFCLTYESAMTRLFLEGRTETVRSCTREACQFVRAMDNKETDQHCLALFRVAVDKHQALLKAAMSGQGIDRHLFALYIMSRLLHMQSPFLTQVQSQQWLLSTSQVPVQQTHLIDVHNYPDYVSSGGGFGPAHDHGYGISYIFMGENAITFHISSKKSSTETDSHRLGQHIENALLDVASLFRVGQHFKRQFRGENSDYRYNFLSCKTVDPNTPTSSTNL	soluble
GMKQSKKIIITCAVTGSIHTPTMSPYLPITPEEIVKEGVAAAEAGAAMLHLHARDPLNGRPSQDPDLFMRFLPQLKERTDAILNITTGGGLGMSLDERLAPARAARPEVASMNMGSLNFNISQAAAKFDTFKFDWERPYLAGTRDFILSNTFSQIERGMTELGASGTRFEFECYDVGHLYNLAHFVDRKLVEPPFFLQCVFGILGGIGADPENLLHMRTIADRLFGQDYYLSVLAAGRHQMPFVTMSAILGGNVRVGLEDSLYSGKGQLATSNAEQVRKIRRIIEELSLDIATPDEARAMLKTKGANETSF	soluble
MSLRRGIYHIENAGVPSAIDLKDGSSSDGTPIVGWQFTPDTINWHQLWLAEPIPNVADTFTLCNLFSGTYMDLYNGSSEAGTAVNGWQGTAFTTNPHQLWTIKKSSDGTSYKIQNYGSKTFVDLVNGDSSDGAKIAGWTGTWDEGNPHQKWYFNRMSVSSAEAQAAIARNPHIHGTYRGYILDGEYLVLPNATFTQIWKDSGLPGSKWREQIYDCDDFAIAMKAAVGKWGADSWKANGFAIFCGVMLGVNKAGDAAHAYNFTLTKDHADIVFFEPQNGGYLNDIGYDSYMAFY	soluble

— the DeepSol protein solubility set
